Ki data for six molecules are collected here from patent US20080019962A1.

For assay [1], the target named is protease domain of Endotheliase-2 (ET2) (human) (UniProt Q9BYE2). Nature of the assay: continuous in vitro enzyme assay, inhibition of ET2 protease activity by soluble Fab.
Assay [2] has the same target. Nature of the assay: continuous in vitro enzyme assay on rET2, Fab.
Assay [3] has the same target. Briefly: continuous in vitro enzyme assay on rET2, IgG1.

Sequence of protease domain of Endotheliase-2 (ET2) (human) (Q9BYE2 other isoform, or with tags, fused parts or gaps limits assumed): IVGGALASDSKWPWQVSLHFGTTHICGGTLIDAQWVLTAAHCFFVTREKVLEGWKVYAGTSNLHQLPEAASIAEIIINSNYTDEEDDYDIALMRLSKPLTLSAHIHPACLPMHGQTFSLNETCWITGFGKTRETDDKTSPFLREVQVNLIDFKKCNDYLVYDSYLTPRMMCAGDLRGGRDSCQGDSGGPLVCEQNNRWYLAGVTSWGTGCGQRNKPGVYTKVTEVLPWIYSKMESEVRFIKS

B1: Fab D2 (Fab, V domains shown)
VH: EVQLLESGGGLVQPGGSLRLSCAASGFTFSRYRMYWVRQAPGKGLEWVSSISPSGGDTRYADSVKGRFTISRDNSQNTLYLQMNSLRAEDTAVYYCARGGPRGNKYYFDYWGQGTLVTVSS
VL: DIQMTQSPSSLSASVGDRVTITCRASQTIDNYLNWYQQKPGKAPKLVVYAASTLQTRVPSRFSGSGSGTDFTLTIDSLKPEDFATYFCQQGFSNPWTFGQGTTVAMIR
As to B1, the Ki in assay [1] was determined as 0.09 nM; in assay [2], 0.095 nM.

B2: C9 IgG1 antibody (Fab C9 reformatted) (antibody, V domains shown)
VH: EVQLLESGGGLVQPGGSLRLSCAASGFTFSRYPMFWVRQAPGKGLEWVSYISSSGGFTGYADSVKGRFTISRDNSKNTLYLQMNSLRAEDTAVYYCARGGPRGNKYYFDYWGQGTLVTVSS
VL: QSVLTQPASVSGSPGQSITISCTGTSSDVGHYNYVSWYQQHPGKAPKVMIYDVSSRPSGVSDRFSGSKSGNTASLAISGLQAEDEADYYCSSYTSGDTLYVFGTGTKVTVLG
For B2, in assay [3], the Ki came to 0.11 nM.

B3: Fab A2 (Fab, V domains shown)
VH: EVQLLESGGGLVQPGGSLRLSCAASGFTFSRYRMYWVRQAPGKGLEWVSSISPSGGDTRYADSVKGRFTISRDNSQNTLYLQMNSLRAEDTAVYYCARGGPRGNKYYFDYWGQGTLVTVSS
VL: DIQMTQSPSFLSAFVGDRVTITCRASQDIRSDLAWYQQTPGKAPKLLIYAASTLKDGAPSRFSGSGSGTEFTLTISSLHPEDLATYYCQHLNGHPAFGPGTKVNIQR
Regarding B3, the Ki turned out to be 0.16 nM in assay [1] and 0.15 nM in assay [2].

B4: Fab C9 (Fab, V domains shown)
VH: EVQLLESGGGLVQPGGSLRLSCAASGFTFSRYPMFWVRQAPGKGLEWVSYISSSGGFTGYADSVKGRFTISRDNSKNTLYLQMNSLRAEDTAVYYCARGGPRGNKYYFDYWGQGTLVTVSS
VL: QSVLTQPASVSGSPGQSITISCTGTSSDVGHYNYVSWYQQHPGKAPKVMIYDVSSRPSGVSDRFSGSKSGNTASLAISGLQAEDEADYYCSSYTSGDTLYVFGTGTKVTVLG
In the case of B4, the Ki in assay [1] was 0.26 nM; in assay [2] it was 0.31 nM.

B5: Fab D5 (Fab, V domains shown)
VH: EVQLLESGGGLVQPGGSLRLSCAASGFTFSRYDMHWVRQAPGKGLEWVSSISSSGGYTAYADSVKGRFTISRDNSKNTLYLQMNSLRAEDTAVYYCARGARGTSQGYWGQGTLVTVSS
VL: DIQMTQSPGTLSLSPGERGTLSCRASQFVSYSYLAWYQQKPGQAPRLLIYGASSRAKGIPDRFSGSGSGTDFTLTITRLEPEDFAVYYCQQYVPSVPWTFGQGTKVEVKR
For the molecule B5, the Ki in assay [1] and in assay [2] was 0.07 nM throughout.

B6: D5 IgG1 antibody (Fab D5 reformatted) (antibody, V domains shown)
VH: EVQLLESGGGLVQPGGSLRLSCAASGFTFSRYDMHWVRQAPGKGLEWVSSISSSGGYTAYADSVKGRFTISRDNSKNTLYLQMNSLRAEDTAVYYCARGARGTSQGYWGQGTLVTVSS
VL: DIQMTQSPGTLSLSPGERGTLSCRASQFVSYSYLAWYQQKPGQAPRLLIYGASSRAKGIPDRFSGSGSGTDFTLTITRLEPEDFAVYYCQQYVPSVPWTFGQGTKVEVKR
For B6, the Ki in assay [3] amounted to 0.086 nM.
